Publication PMC11398526 (bioRxiv, 2024)

B1: progesterone receptor isoform A (PR-A), full-length, Strep II tagged (natural protein)
chain: MSRSGCKVGDSSGTAAAHKVLPRGLSPARQLLLPASESPHWSGAPVKPSPQAAAVEVEEEDGSESEESAGPLLKGKPRALGGAAAGGGAAAVPPGAAAGGVALVPKEDSRFSAPRVALVEQDAPMAPGRSPLATTVMDFIHVPILPLNHALLAARTRQLLEDESYDGGAGAASAFAPPRSSPCASSTPVAVGDFPDCAYPPDAEPKDDAYPLYSDFQPPALKIKEEEEGAEASARSPRSYLVAGANPAAFPDFPLGPPPPLPPRATPSRPGEAAVTAAPASASVSSASSSGSTLECILYKAEGAPPQQGPFAPPPCKAPGASGCLLPRDGLPSTSASAAAAGAAPALYPALGLNGLPQLGYQAAVLKEGLPQVYPPYLNYLRPDSEASQSPQYSFESLPQKICLICGDEASGCHYGVLTCGSCKVFFKRAMEGQHNYLCAGRNDCIVDKIRRKNCPACRLRKCCQAGMVLGGRKFKKFNKVRVVRALDAVALPQPVGVPNESQALSQRFTFSPGQDIQLIPPLINLLMSIEPDVIYAGHDNTKPDTSSSLLTSLNQLGERQLLSVVKWSKSLPGFRNLHIDDQITLIQYSWMSLMVFGLGWRSYKHVSGQMLYFAPDLILNEQRMKESSFYSLCLTMWQIPQEFVKLQVSQEEFLCMKVLLLLNTIPLEGLRSQTQFEEMRSSYIRELIKAIGLRQKGVVSSSQRFYQLTKLLDNLHDLVKQLHLYCLNTFIQSRALSVEFPEMMSEVIAAQLPKILAGMVKPLLFHKK
B2: steroid receptor coactivator 3 (SRC3), full-length, Strep II tagged (natural protein)
chain: not shown

Key:
[1] = molecular target: T1, histone acetyltransferase p300, full-length, Strep II tagged (human, UniProt Q09472 1-2414); experiment: cross-linking
[2] = molecular target: B2; experiment: HDX-MS
[3] = molecular target: B1; experiment: SEC-MALS
[4] = molecular target: T1, histone acetyltransferase p300, …; experiment: HDX-MS

T1 sequence (Q09472 whole entry): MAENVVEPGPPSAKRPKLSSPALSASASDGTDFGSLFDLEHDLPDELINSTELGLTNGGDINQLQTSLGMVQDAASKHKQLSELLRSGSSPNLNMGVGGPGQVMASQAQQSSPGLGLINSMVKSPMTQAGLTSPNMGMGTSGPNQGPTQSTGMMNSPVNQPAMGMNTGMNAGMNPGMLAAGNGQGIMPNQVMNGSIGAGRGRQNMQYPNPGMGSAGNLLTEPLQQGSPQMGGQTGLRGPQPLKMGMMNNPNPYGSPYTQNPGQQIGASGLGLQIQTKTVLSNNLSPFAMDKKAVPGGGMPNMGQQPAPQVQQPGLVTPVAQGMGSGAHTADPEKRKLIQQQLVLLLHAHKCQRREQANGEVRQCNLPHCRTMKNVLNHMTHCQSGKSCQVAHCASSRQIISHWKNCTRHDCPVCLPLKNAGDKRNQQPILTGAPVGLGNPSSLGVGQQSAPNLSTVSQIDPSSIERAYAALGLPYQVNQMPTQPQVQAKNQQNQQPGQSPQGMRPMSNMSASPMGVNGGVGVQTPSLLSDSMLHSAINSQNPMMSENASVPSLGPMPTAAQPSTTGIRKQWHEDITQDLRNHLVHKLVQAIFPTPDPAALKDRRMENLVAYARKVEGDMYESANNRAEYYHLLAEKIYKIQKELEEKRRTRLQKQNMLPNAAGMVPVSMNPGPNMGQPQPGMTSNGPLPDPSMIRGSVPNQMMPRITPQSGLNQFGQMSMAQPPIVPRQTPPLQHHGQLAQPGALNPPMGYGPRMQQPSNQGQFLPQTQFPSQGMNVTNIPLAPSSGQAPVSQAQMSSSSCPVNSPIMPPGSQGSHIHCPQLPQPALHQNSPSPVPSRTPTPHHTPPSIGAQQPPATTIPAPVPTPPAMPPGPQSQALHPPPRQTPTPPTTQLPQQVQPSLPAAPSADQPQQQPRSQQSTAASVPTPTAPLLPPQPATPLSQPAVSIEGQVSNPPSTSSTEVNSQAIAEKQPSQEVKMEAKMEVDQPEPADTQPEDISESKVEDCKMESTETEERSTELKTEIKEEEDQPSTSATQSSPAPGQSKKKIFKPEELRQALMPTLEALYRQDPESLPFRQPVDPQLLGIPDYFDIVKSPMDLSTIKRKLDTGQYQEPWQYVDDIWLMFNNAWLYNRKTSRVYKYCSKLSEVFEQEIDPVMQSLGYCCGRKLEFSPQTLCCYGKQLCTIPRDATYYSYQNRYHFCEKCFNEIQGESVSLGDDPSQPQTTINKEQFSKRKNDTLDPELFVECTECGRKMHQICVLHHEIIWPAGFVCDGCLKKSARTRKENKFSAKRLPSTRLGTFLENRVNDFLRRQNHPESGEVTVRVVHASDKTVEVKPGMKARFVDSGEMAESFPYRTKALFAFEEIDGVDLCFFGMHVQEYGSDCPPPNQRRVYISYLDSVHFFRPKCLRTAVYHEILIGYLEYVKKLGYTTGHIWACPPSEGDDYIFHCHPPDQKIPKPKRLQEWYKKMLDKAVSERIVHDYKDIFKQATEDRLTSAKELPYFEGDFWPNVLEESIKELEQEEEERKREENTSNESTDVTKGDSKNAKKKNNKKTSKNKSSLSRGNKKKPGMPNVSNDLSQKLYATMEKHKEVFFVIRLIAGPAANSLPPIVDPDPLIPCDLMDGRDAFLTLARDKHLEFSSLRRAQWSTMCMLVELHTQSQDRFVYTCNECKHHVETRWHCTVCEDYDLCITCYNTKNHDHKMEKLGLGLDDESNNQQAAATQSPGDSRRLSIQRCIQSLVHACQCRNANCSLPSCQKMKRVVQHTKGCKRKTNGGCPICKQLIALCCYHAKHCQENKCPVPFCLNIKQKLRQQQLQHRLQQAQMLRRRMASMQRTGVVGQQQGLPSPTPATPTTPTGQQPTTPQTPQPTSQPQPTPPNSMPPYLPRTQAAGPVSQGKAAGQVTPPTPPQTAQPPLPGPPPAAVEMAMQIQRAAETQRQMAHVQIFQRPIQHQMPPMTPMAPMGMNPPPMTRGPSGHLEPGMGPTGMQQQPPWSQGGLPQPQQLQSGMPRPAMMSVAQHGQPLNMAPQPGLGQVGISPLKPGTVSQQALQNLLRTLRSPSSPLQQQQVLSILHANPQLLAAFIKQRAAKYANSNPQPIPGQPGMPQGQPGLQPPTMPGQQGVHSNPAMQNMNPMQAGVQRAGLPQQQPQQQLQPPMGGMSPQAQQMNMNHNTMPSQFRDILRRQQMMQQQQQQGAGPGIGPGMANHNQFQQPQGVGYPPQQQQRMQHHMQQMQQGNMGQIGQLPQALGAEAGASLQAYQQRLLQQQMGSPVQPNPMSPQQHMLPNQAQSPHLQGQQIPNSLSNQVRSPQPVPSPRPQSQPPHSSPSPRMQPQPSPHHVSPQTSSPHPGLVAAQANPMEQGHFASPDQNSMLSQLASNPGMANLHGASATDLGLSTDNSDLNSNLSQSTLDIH

binding result [1]	binding result [2]	stoichiometry N [3]	binding result [4]	Binder
binds	binds			B1
binds	binds			progesterone receptor isoform B (PR-B), full-length, Strep II tagged (natural protein) MTELKAKGPRAPHVAGGPPSPEVGSPLLCRPAAGPFPGSQTSDTLPEVSAIPISLDGLLFPRPCQGQDPSDEKTQDQQSLSDVEGAYSRAEATRGAGGSSSSPPEKDSGLLDSVLDTLLAPSGPGQSQPSPPACEVTSSWCLFGPELPEDPPAAPATQRVLSPLMSRSGCKVGDSSGTAAAHKVLPRGLSPARQLLLPASESPHWSGAPVKPSPQAAAVEVEEEDGSESEESAGPLLKGKPRALGGAAAGGGAAAVPPGAAAGGVALVPKEDSRFSAPRVALVEQDAPMAPGRSPLATTVMDFIHVPILPLNHALLAARTRQLLEDESYDGGAGAASAFAPPRSSPCASSTPVAVGDFPDCAYPPDAEPKDDAYPLYSDFQPPALKIKEEEEGAEASARSPRSYLVAGANPAAFPDFPLGPPPPLPPRATPSRPGEAAVTAAPASASVSSASSSGSTLECILYKAEGAPPQQGPFAPPPCKAPGASGCLLPRDGLPSTSASAAAAGAAPALYPALGLNGLPQLGYQAAVLKEGLPQVYPPYLNYLRPDSEASQSPQYSFESLPQKICLICGDEASGCHYGVLTCGSCKVFFKRAMEGQHNYLCAGRNDCIVDKIRRKNCPACRLRKCCQAGMVLGGRKFKKFNKVRVVRALDAVALPQPVGVPNESQALSQRFTFSPGQDIQLIPPLINLLMSIEPDVIYAGHDNTKPDTSSSLLTSLNQLGERQLLSVVKWSKSLPGFRNLHIDDQITLIQYSWMSLMVFGLGWRSYKHVSGQMLYFAPDLILNEQRMKESSFYSLCLTMWQIPQEFVKLQVSQEEFLCMKVLLLLNTIPLEGLRSQTQFEEMRSSYIRELIKAIGLRQKGVVSSSQRFYQLTKLLDNLHDLVKQLHLYCLNTFIQSRALSVEFPEMMSEVIAAQLPKILAGMVKPLLFHKK
		0.5 SRC3 per PR-A	binds	B2
